From PMC12495856

Experiments:
[1] = biological target: SARS-CoV-2 PLpro TR (truncated form lacking the Ubl domain) (SARS-CoV-2)
[2] = biological target: SARS-CoV-2 papain-like protease (PLpro) wild type (SARS-CoV-2)

human ISG15 (interferon-stimulated gene product 15) (from UniProt P05161 1-157) (natural protein)
IC50 of free ISG15 for inhibition of ISG15-AMC cleavage [1]: 2050 nM | IC50 of free ISG15 for inhibition of Ub-AMC cleavage [1]: 1060 nM | IC50 of free ISG15 for inhibition of ISG15-AMC cleavage [2]: 2050 nM | IC50 of free ISG15 for inhibition of Ub-AMC cleavage [2]: 1590 nM
